Among the data in the supplement of paper PMC10567573 are protein stability index values, retold here.

The data set is described as follows: protein stability index of a GFP-peptide fusion (GPS, HEK-293T) (PSI 1-6); higher = more stable.
Setting [1] is: treatment: DMSO, c terminus: a fixed tail appended.
[2] abbreviates: treatment: MLN4924 1 uM, 8 h, c terminus: a fixed tail appended.

± gives the standard deviation.
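Further: 24-mer peptide tiles fused after GFP, lentivirally expressed, FACS-sorted into six equal bins by GFP/DsRed ratio, decoded by Illumina sequencing, PSI is the read-weighted mean bin number.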

As to ATTYKHGVLTRKTHADMDGKRTPR [PSD2], the protein stability index runs as follows: under setting [1], 4.44 ± 0.16; under setting [2], 4.63 ± 0.26.

NHGYAEPAAGRELPPDMTVVPGDH [KCNA3]: the protein stability index was 5.21 ± 0.14 under setting [1] and 5.24 ± 0.24 under setting [2].

For FLRSIDQFANLVLHQTVERIHVGK [LSM1], the protein stability index by setting is: under setting [1], 2.95 ± 0.55; under setting [2], 2.46 ± 0.39.

As to SQYIAVEAAEGRNKNEVFYQCPDQ [FBXO3], the protein stability index is 4.46 ± 0.061 under setting [1] and 4.74 ± 0.094 under setting [2].

In turn, RPTYTPPSIMPQKHWVYVKRGGNC [ZBTB22] displayed a protein stability index under setting [1] of 2.78 ± 0.25 and a protein stability index under setting [2] of 3.06 ± 0.32.

DLIDVREVMERDAKDYADSIHAIF [RAB22A] showed a protein stability index under setting [1] of 3.16 ± 0.042 and a protein stability index under setting [2] of 3.23 ± 0.38.

On to DESVVMPESQMCRKFSRECEDQKQ [NEUROD6], for which the protein stability index was determined as 5.46 ± 0.3 under setting [1] and 5.43 ± 0.24 under setting [2].

As to QVGRGLRYIHSMSLVHMDIKPSNI [WEE1], the protein stability index was determined as 2.15 ± 0.3 under setting [1] and 2.08 ± 0.25 under setting [2].

In the case of RFGDRMFYKDWWNSTSYSNYYRTW [SOAT1], the protein stability index by setting is: under setting [1], 1.92 ± 0.23; under setting [2], 2.04 ± 0.34.

Turning to PATGRSGPLPPPPPGAGGPPMPPP [WAS], the protein stability index came to 4.74 ± 0.28 under setting [1] and 4.88 ± 0.22 under setting [2].

KLVADFQRYILYWRKRFTEQPITD [ZNF277]: the protein stability index amounted to 1.99 ± 0.24 under setting [1] and 2.19 ± 0.44 under setting [2].

For the sequence GLLQLDHRGLRCSWEGLAVLDSLL [RSAD1], the protein stability index by setting is: under setting [1], 2.31 ± 0.56; under setting [2], 2.06 ± 0.31.

Take GIMCLKRLNYDRKELEKRREESQH [PPFIA4]: the protein stability index turned out to be 3.69 ± 0.31 under setting [1] and 3.62 ± 0.4 under setting [2].

Turning to EQGFSQSFTQEQVADIDGQYAMTR [CTNNB1], the protein stability index is, setting by setting: under setting [1], 4.86 ± 0.083; under setting [2], 4.61 ± 0.16.

With RMAIGYLHSHRHLYPEGIGARQQQ [POMT2], the protein stability index stood at 2.9 ± 0.22 under setting [1] and 3.08 ± 0.21 under setting [2].

AFHVRRTNRVKECLAKGTFSDVTF [RHOBTB2]: the protein stability index under setting [1] amounted to 2.57 ± 0.24 and the protein stability index under setting [2] was determined as 2.78 ± 0.4.

As for PGAEEAQDPEGKGEQEHSQQKEEE [CHGA], the protein stability index runs as follows: under setting [1], 5.65 ± 0.15; under setting [2], 5.58 ± 0.43.

In the case of SALGPPPAASNSSDLFDLMGSSQA [CLINT1], the protein stability index reads like this: under setting [1], 4.7 ± 0.22; under setting [2], 4.49 ± 0.2.

In turn, KDKRRIVSSSQDGKVIVWDSFTTN [GNB5] returned a protein stability index under setting [1] of 3.63 ± 0.049 and a protein stability index under setting [2] of 3.8 ± 0.19.

With NCKLATRAKDFLPADIQAQFAISR [SNX8], the protein stability index by setting is: under setting [1], 2.45 ± 0.21; under setting [2], 2.73 ± 0.52.

As for DDHECCERVVINISGLRFETQLKT [KCNA1], the protein stability index is 2.79 ± 0.3 under setting [1] and 2.61 ± 0.25 under setting [2].

Turning to AKGNTALHDCAESGSLEILQLLLG [FEM1A], the protein stability index worked out at 2.41 ± 0.23 under setting [1] and 2.16 ± 0.26 under setting [2].

On to KDPKAGDSKSGGSGSESDHTTRSS [DVL3], for which the protein stability index turned out to be 5.3 ± 0.38 under setting [1] and 5.53 ± 0.23 under setting [2].

As for HITARIESDLTLESLSDEEIHPG [DRICH1], the protein stability index by setting is: (treatment: DMSO, c terminus: native) 4.47 ± 0.23; (treatment: MLN4924 1 uM, 8 h, c terminus: native) 4.38 ± 0.37.

In the case of TLPKSLSLPTTAPSNSSSLTLSGI [MYBL2], the protein stability index runs as follows: under setting [1], 3.87 ± 0.12; under setting [2], 3.83 ± 0.28.

The sequence EEPAEKEDLLQQMLERRYTPYPNL [CLCN6] registered a protein stability index under setting [1] of 4.4 ± 0.19 and a protein stability index under setting [2] of 4.44 ± 0.37.

Regarding TDLDAVRTPEPLEEFPKREDQEGS [MYBL2], the protein stability index is, setting by setting: under setting [1], 5.43 ± 0.11; under setting [2], 5.52 ± 0.21.

Take LSRKLMQLQHEKAELEQHLEQEQE [CCDC6]: the protein stability index reads like this: under setting [1], 5.27 ± 0.27; under setting [2], 5.02 ± 0.2.

In the case of LNVHDLDSEQNGQVTCSILAYLPF [PCDHGA10], the protein stability index reads like this: under setting [1], 2.24 ± 0.22; under setting [2], 2.19 ± 0.41.

Turning to WEYPGSQGSPAVDKERFTTLVQDL [CHIT1], the protein stability index is, setting by setting: under setting [1], 3.9 ± 0.25; under setting [2], 3.89 ± 0.19.

For the sequence ALAPKQELPSALESHEVPGTLSMG [ZNF24], the protein stability index is, setting by setting: under setting [1], 4.59 ± 0.25; under setting [2], 4.75 ± 0.3.

For the sequence NISGLRFETQLKTLCQFPETLLGD [KCNA3], the protein stability index is, setting by setting: under setting [1], 2.89 ± 0.26; under setting [2], 3.03 ± 0.23.

Take LEEGDELQLAIPRENAQISLDGDV [TNFSF13B]: the protein stability index by setting is: under setting [1], 5.43 ± 0.083; under setting [2], 5.29 ± 0.12.

As for IMDANQTYLVSERLEREERNQTQV [FAF2], the protein stability index is 4.16 ± 0.2 under setting [1] and 4.32 ± 0.1 under setting [2].

Regarding YQRFRQKSKASFLLLASGLVITDF [PTGFR], the protein stability index is, setting by setting: under setting [1], 2.65 ± 0.21; under setting [2], 2.49 ± 0.7.

With EKAMAEWVKQQAEREAEKEQKRLE [SDE2], the protein stability index came out at 5.5 ± 0.34 under setting [1] and 5.57 ± 0.18 under setting [2].

For the sequence SVGFQSNEAASLASTGVGVVKVIS [SLC2A12], the protein stability index reads like this: under setting [1], 3.68 ± 0.64; under setting [2], 3.6 ± 0.41.

On to LAEYCIKTKVPSNDNSSDLLYDDL [UBE2R2], for which the protein stability index runs as follows: under setting [1], 4.13 ± 0.17; under setting [2], 4.19 ± 0.32.

On to QRELHSHVTNAMVLVNVLQAIYVI [DHCR7], for which the protein stability index by setting is: under setting [1], 2.61 ± 0.59; under setting [2], 2.78 ± 0.61.

With WTRITCAEEGWSPTPKCLRLCFFP [CFHR2], the protein stability index runs as follows: under setting [1], 2.82 ± 0.71; under setting [2], 2.6 ± 0.46.

As to ETAPTTVDRTHALMKKIGQCPMRV [CRYL1], the protein stability index came to 3.59 ± 0.14 under setting [1] and 3.68 ± 0.2 under setting [2].

Regarding QCSNRIGSMKIKSSWDIDGRATKR [FBXO34], the protein stability index came out at 3.28 ± 0.2 under setting [1] and 3.52 ± 0.28 under setting [2].

For LDAEDRPAWNSKLQYILAQIGFSV [SLC6A17], the protein stability index stood at 2.19 ± 0.53 under setting [1] and 2.32 ± 0.21 under setting [2].

For EEVSEVESFILDQDDLENPMLETA [ANKRD17], the protein stability index was found to be 5.69 ± 0.23 under setting [1] and 5.16 ± 0.57 under setting [2].

Take TEHMKTHTGLKPYECGVCAKKFMW [ZBTB22]: the protein stability index amounted to 2.65 ± 0.26 under setting [1] and 2.77 ± 0.34 under setting [2].

On to LVDKETDKRHVEQKIQFKRETASL [PDZK1], for which the protein stability index came out at 4.72 ± 0.63 under setting [1] and 4.52 ± 0.92 under setting [2].

Take GAGIIVTEAGGVLMDVTGGPFDLM [IMPA1]: the protein stability index amounted to 2.28 ± 0.4 under setting [1] and 2.48 ± 0.39 under setting [2].

CCAAPGPHVALAVRYNRVGILRRI [ANKRD9]: the protein stability index by setting is: under setting [1], 2.37 ± 0.26; under setting [2], 2.49 ± 0.2.

Regarding QSSPSFAEKCLDFLVDMFNDEIEE [INTS4], the protein stability index reads like this: under setting [1], 2.87 ± 0.1; under setting [2], 3.18 ± 0.2.

In the case of VGVDRAFPLKPMVHRKSCSTGEAG [ZC2HC1C], the protein stability index under setting [1] stood at 3.74 ± 0.18 and the protein stability index under setting [2] is 4.2 ± 0.16.

As for KKFYEAFSKNLKLGIHEDSTNRRR [HSP90AB1], the protein stability index reads like this: under setting [1], 3.39 ± 0.33; under setting [2], 3.59 ± 0.51.

On to FHKDCASRVNNASYCPHCGEESSK [EHMT1], for which the protein stability index is, setting by setting: under setting [1], 3.45 ± 0.15; under setting [2], 4.05 ± 0.47.

As for SYKDLDVIFGVELPGNEEFQVVKD [TENT5D], the protein stability index runs as follows: under setting [1], 3.84 ± 0.24; under setting [2], 3.88 ± 0.099.

SSSRDTDWVVVKEPVIKVAAIDNG [PI4K2A]: the protein stability index came to 4.25 ± 0.1 under setting [1] and 4 ± 0.11 under setting [2].

Turning to RKDHLKNHLQTHDPNKMAFGCEEC [PLAGL1], the protein stability index reads like this: under setting [1], 4.77 ± 0.16; under setting [2], 4.93 ± 0.54.

Consider QVQLGLRCCGAASYQDWQQNLYFN [TSPAN10], for which the protein stability index by setting is: under setting [1], 3.12 ± 1.1; under setting [2], 2.81 ± 0.91.

Take PQSLPSTPKAAWIREEGRCSSSDD [PBXIP1]: the protein stability index runs as follows: under setting [1], 5.25 ± 0.2; under setting [2], 5.27 ± 0.14.

With AFDYNSLSPTQRQKNFELAFTMAE [SMTNL2], the protein stability index came to 2.76 ± 0.3 under setting [1] and 3.09 ± 0.29 under setting [2].

In the case of KAGLENSLAETECRYATQLQQIQG [KRT15], the protein stability index under setting [1] is 3.92 ± 0.049 and the protein stability index under setting [2] is 4 ± 0.3.

In the case of AAPAVRASSSPVTLRQKTVDWRRV [SLA], the protein stability index stood at 3.2 ± 0.54 under setting [1] and 3.17 ± 0.72 under setting [2].

With AIKEMIENCLDAKSTSIQVIVKEG [MLH1], the protein stability index under setting [1] worked out at 2.79 ± 0.19 and the protein stability index under setting [2] was 2.74 ± 0.22.

As to MSWAKLARQATNLKVNFFFERIMK [FBXO39], the protein stability index reads like this: under setting [1], 2.34 ± 0.19; under setting [2], 2.22 ± 0.35.

With MADERKDEAKAPHWTSAPLTEASA [MAP2], the protein stability index is 5.22 ± 0.43 under setting [1] and 5.41 ± 0.19 under setting [2].

Consider GPGDGPPEIAQNFSAPDPPRPRPV [SMTNL2], for which the protein stability index under setting [1] is 5.05 ± 0.19 and the protein stability index under setting [2] was 5.03 ± 0.24.

Turning to YVLEFSDHPGIHEPLEPEVKYVGN [CPN1], the protein stability index by setting is: under setting [1], 3.17 ± 0.27; under setting [2], 3.3 ± 0.1.

Regarding MPNGCSDDVLPWRRTAENKLDTKY [DCTD], the protein stability index reads like this: under setting [1], 4 ± 0.1; under setting [2], 3.87 ± 0.29.

Regarding KASWSSLSMDEKVELYRIKFKESF [COX4I1], the protein stability index under setting [1] turned out to be 2.55 ± 0.56 and the protein stability index under setting [2] is 2.85 ± 0.44.

Regarding MMDLRNTPAKSLDKFIEDYLLPDT [OAS1], the protein stability index runs as follows: under setting [1], 3.04 ± 0.16; under setting [2], 3.15 ± 0.28.

For the sequence EVSNPSKPGRKTNQLQYMQNVVVK [BRD3], the protein stability index under setting [1] is 3.66 ± 0.11 and the protein stability index under setting [2] turned out to be 3.79 ± 0.28.

Regarding EPVAEIGVGAYGTVYKARDPHSGH [CDK4], the protein stability index is, setting by setting: under setting [1], 4.11 ± 0.32; under setting [2], 4.1 ± 0.28.

RAKDLVELDPEVEGTKPSATEMIW [GOLPH3L] came in with a protein stability index under setting [1] of 4.07 ± 0.23 and a protein stability index under setting [2] of 4.13 ± 0.45.

Take FPETTFISVTAYQNPQITQLKIAA [TBX6]: the protein stability index by setting is: under setting [1], 2.58 ± 0.72; under setting [2], 2.73 ± 0.59.
